# Key:
# GIRK1/2-CFP [1] = target: GIRK1/2-CFP
# GIRK1/2-CFP [2] = experiment: FRET or BRET; acceptor bleaching under TIRF illumination in living HEK293T cells co-transfected with receptor-YFP (or prestin-YFP) and GIRK1/2-CFP; G protein subunits not additionally transfected; absence or presence of oxo-M (10 uM)
# GIRK1/2-CFP [3] = target: GIRK1/2-CFP; remark: listed apart in the source
substance,measurement,setting,value
M2R-YFP (from UniProt P06199 1-466) (receptor),"agonist-induced GIRK channel current density (ΔImax), oxo-M 10 uM, tandem constructs M2R-YFP-100/265/535-GIRK1/2, PTX (-); not changed with the increases in the linker length",GIRK1/2-CFP [1],62 pA/pF
receptor-YFP with the long chain in the middle of M2R-i3 (K221-P379) replaced with SGGGS,FRET efficiency,GIRK1/2-CFP [2],5.5%
M1R-YFP (from UniProt P04761 1-460) (receptor),"agonist-induced GIRK channel current density (ΔImax), oxo-M 10 uM, tandem constructs M1R-YFP-34/100/265-GIRK1/2, PTX (-); decreased with the increase in the linker length",GIRK1/2-CFP [3],11.3 pA/pF

# Reference: paper PMC6150519
